Literature values in patent US20260007686A1, “COMPOSITIONS AND METHODS FOR IMPROVING VISION” (Ripple Therapeutics Corporation, priority 2022, published 2026).

Columns and labels:
[1] = test system: macular edema in individuals with diabetic macular edema (DME); settings: literature studies (Boyer et al.; Callanan et al.)
[2] = test system: visual acuity of individuals with diabetic macular edema (DME); settings: literature studies (Boyer et al.; Callanan et al.)

B1: ranibizumab (antibody, chains of the INN, looked up, V domains shown)
VH: EVQLVESGGGLVQPGGSLRLSCAASGYDFTHYGMNWVRQAPGKGLEWVGWINTYTGEPTYAADFKRRFTFSLDTSKSTAYLQMNSLRAEDTAVYYCAKYPYYYGTSHWYFDVWGQGTLVTVSS
VL: DIQLTQSPSSLSASVGDRVTITCSASQDISNYLNWYQQKPGKAPKVLIYFTSSLHSGVPSRFSGSGSGTDFTLTISSLQPEDFATYYCQQYSTVPWTFGQGTKVEIK
modifications: Fab
notes: ranibizumab injection, a clinically approved anti-VEGF intravitreal injection
Mean Change in CST at M3 ([1]; month 3): −140 μm
Mean Change in CST at M6 ([1]; month 6): −133 μm
Mean Change in BCVA at M3 ([2]; month 3): +6 letters
Mean Change in BCVA at M6 ([2]; month 6): +8 letters
